The record followed here is publication PMC9300119, “Proteins DotY and DotZ modulate the dynamics and localization of the type IVB coupling complex of Legionella pneumophila” (Molecular Microbiology, 2021).

The labels stand for the following.
T1: DotL with a Strep-tag at the C-terminus (Legionella pneumophila (strain Lp01), UniProt Q5ZYC6 1-783)
T1 construct: also called DotL_(Strep); DotL_(strep)
T1 sequence: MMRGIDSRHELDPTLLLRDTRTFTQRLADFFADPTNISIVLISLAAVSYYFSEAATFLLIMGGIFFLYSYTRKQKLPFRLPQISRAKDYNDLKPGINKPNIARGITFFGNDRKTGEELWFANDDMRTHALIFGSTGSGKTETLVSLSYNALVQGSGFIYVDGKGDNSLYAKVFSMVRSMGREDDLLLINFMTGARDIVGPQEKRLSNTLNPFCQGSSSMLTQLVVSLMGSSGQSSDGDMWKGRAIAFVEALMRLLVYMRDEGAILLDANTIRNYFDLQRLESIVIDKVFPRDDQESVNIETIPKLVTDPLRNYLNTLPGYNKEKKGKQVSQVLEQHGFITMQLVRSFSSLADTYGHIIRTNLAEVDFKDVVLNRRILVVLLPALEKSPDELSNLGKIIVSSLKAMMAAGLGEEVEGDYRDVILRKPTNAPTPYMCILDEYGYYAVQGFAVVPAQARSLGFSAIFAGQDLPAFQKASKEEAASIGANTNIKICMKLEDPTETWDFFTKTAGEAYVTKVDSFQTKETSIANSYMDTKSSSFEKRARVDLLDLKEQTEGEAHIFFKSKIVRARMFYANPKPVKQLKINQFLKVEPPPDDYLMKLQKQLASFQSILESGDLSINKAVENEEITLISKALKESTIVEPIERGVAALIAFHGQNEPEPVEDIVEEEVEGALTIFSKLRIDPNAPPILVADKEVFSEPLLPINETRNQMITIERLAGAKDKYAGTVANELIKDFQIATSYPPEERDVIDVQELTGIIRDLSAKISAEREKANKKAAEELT

B1: DotN (natural protein)
chain: MNVNQTMADNQQRCELKLIASPGSWRLYSARKIDERFKSYEQKIFQRDRYTCQFCGFQARLYQDIVNLDGDYTNNRLSNLVTACCFCAQCFFVESVGVGGYGGGTLIYLPELTQAELNSLCHVLFCAITNDTGYKSSAQNIYRSFKFRSQIVEEKFGEGTSDPAIFGQLMIDSGVNSEEIREKLFKNIRLLPSRAKFRKQIEKWAASALEEIAD
B2: DotZ (natural protein)
chain: MDEIKKDDELSQWLSTYGTITAERILGRYNISLPQDEILEAINIPSSFYRHLLQIPLKNVLNGIVIQQASDYHVYAQKLLIDYLLSGESSKEPDSQGAGTRESLEDERQRLVQLGDEFHKLELEQDNLIASSQASLMKISIDWNTKLETTLSKLNSLYKNTNSKIKKNAIRKALIKAFIHCDLVKDQSQKNKYQLIDKLNQTLAVSVGAELKESILTNLSELFQILEALNTKLDEFTDRTNHLSQQAKSFRTQFYEVILRIIELIKLLPEYKIDPAQDAINREPLYFDRTIGER
notes: also called lpg1549
B3: DotM (natural protein)
chain: MYIEMAQQQQQSGSDNSMAPVWIVILLFITAYFVWALAHQYIVSFVFTINIWQARLVNLFLNNQLLANQIYLMQTLDPNTVNWDQMVTVMRAVGDYMRYPVICILVVLAFVLYNSNVTLKYRKTYDMKSLRAQEQFNWPAIMPIVKEDLVSQDVNKGPWAMALTPMEFARKYNLLRKDDALLDNPVPGEEMTAGIRRGDAKRVFTMQLGPYWDGFERCSPQAYALSAVFMARMNRDRDAANNILKVLDKTFVDGKPDFSVARPVMKKYQNSELVQEVVAKHAYVLTVIASLLEAAREDGVVPSSEFLWLKPVDRRLWYMLNCVGRQTPYSEVAGPFAHWKAEKEMGRRSLVPMIDEAIRALEIAVKEVRLTPRQMEELEP
B4: DotY (natural protein)
chain: MPKYTLPTRDALLKAMQVGETSIEAAEYMATRFEQILTKAKLLPECNDMLEKIKEYAQFVKFKLLSSAQVWSGQERPTSDYQNTQENKAEFLASHLEGLPSGLKLEVAIGDDAKILRGFSSNGKMVEGDQLKTMDGLLEGWLAKNSLAISGGAVVKIDNTGNQTKVDPQEIRQLINDSEKGVAKYFADKGVGMEVAQRTYQEPKALETKREEIRQEIESGAEAPTTQSIR
notes: also called lpg0294

Experiment [1] concerns the target T1, DotL with a Strep-tag at the C-terminus. Put plainly: cryo-EM structure. To be noted: both partners purified.
In the experiment “DotZ” the target is B2. The experiment can be described thus: cryo-EM structure. The conditions noted are these: both partners purified.
For the experiment “DotM”, the target named is B3. Put plainly: cryo-EM structure. The conditions noted are these: both partners purified.
The target in experiment [2] is T1, DotL with a Strep-tag at the C-terminus. Put plainly: affinity purification with mass spectrometry. The conditions noted are these: partners not purified.

On to B1, for which the binding result (in experiment [1]; with DotZ) was “binds” throughout.
Consider B2, for which, in the experiment with DotM, the binding result is recorded as “binds”.
Turning to B3, the binding result in experiment [2] was “binds”.
As for B4, the binding result in the experiment with DotZ is reported as “binds”.
